Experimental data reported in article PMC10118275.

What was measured:
[1] = target: T1, MBP-TDF1 (Arabidopsis thaliana) (UniProt Q9LSI7); experiment: competition; settings: 10 mM Tris-HCl pH 7.5, 50 mM KCl, 1 mM DTT, 20 uL, room temperature 20 min; 6% polyacrylamide, 0.5x TBE
T1 sequence: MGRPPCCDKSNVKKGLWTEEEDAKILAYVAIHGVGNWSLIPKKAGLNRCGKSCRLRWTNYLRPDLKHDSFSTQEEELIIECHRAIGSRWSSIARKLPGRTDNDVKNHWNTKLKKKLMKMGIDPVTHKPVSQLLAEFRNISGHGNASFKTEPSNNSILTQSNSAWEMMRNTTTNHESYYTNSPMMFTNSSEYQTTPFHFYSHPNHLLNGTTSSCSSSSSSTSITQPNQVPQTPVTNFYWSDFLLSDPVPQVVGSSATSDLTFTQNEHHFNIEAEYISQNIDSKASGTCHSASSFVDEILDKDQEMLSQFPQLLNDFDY

[2] = target: T1, MBP-TDF1 (Arabidopsis thaliana); experiment: EMSA; settings: 10 mM Tris-HCl pH 7.5, 50 mM KCl, 1 mM DTT, 20 uL, room temperature 20 min; 6% polyacrylamide, 0.5x TBE

Sequence: TACGTGATTAGGATTTGTAACCACGTAGACGTGTAAAACAAAATTACTTTTTTATCTGTGATTTATAGGAATTTGAGATTTGAATGCAACGTTGTTGTTTCATCTAACAATAAGTGATGAAGAACTTCAAAAGTCTAAAACCATATCATTTATAAAATCA (double strand) [SKS18 promoter 18-2 probe]
- binding [1]: binds
- binding [2]: binds
